Patent publication US20230416343A1 (SORRENTO THERAPEUTICS, published 2023)

Molecular target: S protein of live SARS-CoV-2 WA-1/2020 isolate (SARS-CoV-2, UniProt P0DTC2 14-1273)
Experiment: cell-based or functional assay

B1: S1D7270LALA antibody (STI-2020) (antibody, V domains shown)
VH: EVQLVESGGGLIQPGGSLRLSCAASGFTVSSNYMSWVRQAPGKGLEWVSIIYPGGSTEYADSVKGRFTISRDNSRNTLYLQMNSLRAEDTAVYYCARELGYYGMDVWGQGTTVTVSS
VL: DIQMTQSPSSVSASVGDRVTITCRASQGISTWLVWYQQKPGKAPNLLIYGASSLQSGVPSRFSGSGSGTDFTLTISSLQPEDFATYYCQQANAYPYTFGQGTKLEIK
With B1 the “IC50, inhibition of cytopathic effect (CPE) on Vero E6 cells, live virus” value was 0.055 µg/mL.
